Laboratory results from patent publication US20250002577A1 (ONCORESPONSE, published 2025).
Where a chain is given by its changes, count along the chain named.

B1: B21H4-35 (antibody, human IgG4 S228P, kappa, V domains shown)
VH: EVQLVESGGDLAQPGGSLRLSCAVSGFSLNTYAMTWVRQAPGKGLEWVSIIVASGGTYYASWAKGRFTISRDNSKNTVYLQMTSLRAEDTALYFCARGGMGSDWGESLDAFDPWGQGTLVTVSS
VL: DIQMTQTPSTVEASVGGTVTITCQASGNIYSFLAWYQQKPGQPPKLLIYTASNLETGVPSRFSGSGSGTEYTLTISGLQSDDAATYYCLGGLYSSDVSYAFGGGTEVVVKR
notes: humanized IgG4/kappa, VH3+VL5; transfection supernatant
B2: B21H4-31 (antibody, human IgG4 S228P, kappa, V domains shown)
VH: B1 VH
VL: DIQMTQSPSTLSASVGDRVTITCQASGNIYSFLAWYQQKPGKAPKLLIYTASNLETGVPSRFSGSGSGTEYTLTISSLQPDDFATYYCLGGLYSSDVSYAFGPGTKVEIKR
notes: humanized IgG4/kappa, VH3+VL1; transfection supernatant
B3: B21H4-55 (antibody, human IgG4 S228P, kappa)
heavy: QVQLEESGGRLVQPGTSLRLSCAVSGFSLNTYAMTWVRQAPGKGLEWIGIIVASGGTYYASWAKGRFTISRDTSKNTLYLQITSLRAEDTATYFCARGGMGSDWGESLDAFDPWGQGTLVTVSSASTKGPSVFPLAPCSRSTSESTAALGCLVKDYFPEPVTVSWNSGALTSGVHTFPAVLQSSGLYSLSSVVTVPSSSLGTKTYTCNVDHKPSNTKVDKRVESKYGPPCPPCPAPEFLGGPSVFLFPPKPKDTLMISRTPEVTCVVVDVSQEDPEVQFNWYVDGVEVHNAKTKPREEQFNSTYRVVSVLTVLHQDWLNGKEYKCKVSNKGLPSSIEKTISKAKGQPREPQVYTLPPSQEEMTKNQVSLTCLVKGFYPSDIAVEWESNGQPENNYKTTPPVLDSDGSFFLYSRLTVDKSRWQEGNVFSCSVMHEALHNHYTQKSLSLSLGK
light: DIQMTQTPSTVEASVGGTVTITCQASGNIYSFLAWYQQKPGQPPKLLIYTASNLETGVPSRFSGSGSGTEYTLTISGLQSDDAATYYCLGGLYSSDVSYAFGGGTEVVVKRTVAAPSVFIFPPSDEQLKSGTASVVCLLNNFYPREAKVQWKVDNALQSGNSQESVTEQDSKDSTYSLSSTLTLSKADYEKHKVYACEVTHQGLSSPVTKSFNRGEC
notes: humanized IgG4/kappa, VH5+VL5; transfection supernatant
B4: B21H4-25 (antibody, human IgG4 S228P, kappa)
heavy: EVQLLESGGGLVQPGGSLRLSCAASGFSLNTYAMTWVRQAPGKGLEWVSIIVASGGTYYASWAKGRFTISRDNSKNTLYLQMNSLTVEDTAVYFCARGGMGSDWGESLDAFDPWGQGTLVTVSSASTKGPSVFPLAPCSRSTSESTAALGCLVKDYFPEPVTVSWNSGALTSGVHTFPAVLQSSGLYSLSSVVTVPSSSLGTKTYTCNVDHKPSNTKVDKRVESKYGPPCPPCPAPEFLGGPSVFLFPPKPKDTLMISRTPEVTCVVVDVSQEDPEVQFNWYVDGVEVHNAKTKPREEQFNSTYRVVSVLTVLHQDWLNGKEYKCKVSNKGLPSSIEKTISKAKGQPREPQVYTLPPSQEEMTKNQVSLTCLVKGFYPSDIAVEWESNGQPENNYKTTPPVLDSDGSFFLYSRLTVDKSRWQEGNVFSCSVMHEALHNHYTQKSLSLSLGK
light: B3 light
notes: humanized IgG4/kappa, VH2+VL5; transfection supernatant
B5: B21H4-15 (antibody, human IgG4 S228P, kappa)
heavy: not shown
light: B3 light
notes: humanized IgG4/kappa, VH1+VL5; transfection supernatant
B6: B21H4-11 (antibody, human IgG4 S228P, kappa)
heavy: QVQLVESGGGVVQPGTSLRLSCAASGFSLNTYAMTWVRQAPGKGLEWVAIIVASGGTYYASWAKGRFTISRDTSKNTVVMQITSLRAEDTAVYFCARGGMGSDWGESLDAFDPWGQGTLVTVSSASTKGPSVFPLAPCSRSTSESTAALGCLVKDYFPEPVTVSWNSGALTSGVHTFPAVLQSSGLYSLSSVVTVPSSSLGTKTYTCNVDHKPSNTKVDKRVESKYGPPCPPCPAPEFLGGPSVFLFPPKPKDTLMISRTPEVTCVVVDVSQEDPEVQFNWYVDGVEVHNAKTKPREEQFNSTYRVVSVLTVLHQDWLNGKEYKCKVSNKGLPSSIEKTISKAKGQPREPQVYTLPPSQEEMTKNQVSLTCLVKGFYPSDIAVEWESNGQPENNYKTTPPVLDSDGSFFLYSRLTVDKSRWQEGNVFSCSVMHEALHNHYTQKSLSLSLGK
light: DIQMTQSPSTLSASVGDRVTITCQASGNIYSFLAWYQQKPGKAPKLLIYTASNLETGVPSRFSGSGSGTEYTLTISSLQPDDFATYYCLGGLYSSDVSYAFGPGTKVEIKRTVAAPSVFIFPPSDEQLKSGTASVVCLLNNFYPREAKVQWKVDNALQSGNSQESVTEQDSKDSTYSLSSTLTLSKADYEKHKVYACEVTHQGLSSPVTKSFNRGEC
notes: humanized IgG4/kappa, VH1+VL1; transfection supernatant
B7: B21H4-12 (antibody, human IgG4 S228P, kappa)
heavy: not shown
light: B6 light with T10S, A43V, E70D, P80S, D81E, F83A, P103G, E108V
notes: humanized IgG4/kappa, VH1+VL2; transfection supernatant
B8: B21H4-42 (antibody, human IgG4 S228P, kappa)
heavy: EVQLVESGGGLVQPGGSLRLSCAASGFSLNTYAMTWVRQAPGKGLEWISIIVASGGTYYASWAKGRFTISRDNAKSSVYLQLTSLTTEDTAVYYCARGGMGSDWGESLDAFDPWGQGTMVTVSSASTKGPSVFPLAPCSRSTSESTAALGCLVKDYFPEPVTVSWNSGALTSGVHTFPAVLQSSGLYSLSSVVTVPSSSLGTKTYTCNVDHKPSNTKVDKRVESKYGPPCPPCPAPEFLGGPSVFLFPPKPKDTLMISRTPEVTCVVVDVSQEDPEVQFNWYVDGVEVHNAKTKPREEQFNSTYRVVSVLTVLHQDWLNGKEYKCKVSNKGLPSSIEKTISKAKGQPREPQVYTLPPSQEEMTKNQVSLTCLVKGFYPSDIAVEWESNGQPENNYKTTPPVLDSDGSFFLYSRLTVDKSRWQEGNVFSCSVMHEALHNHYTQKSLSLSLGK
light: B6 light with T10S, A43V, E70D, P80S, D81E, F83A, P103G, E108V
notes: humanized IgG4/kappa, VH4+VL2; transfection supernatant
B9: B21H4-23 (antibody, human IgG4 S228P, kappa)
heavy: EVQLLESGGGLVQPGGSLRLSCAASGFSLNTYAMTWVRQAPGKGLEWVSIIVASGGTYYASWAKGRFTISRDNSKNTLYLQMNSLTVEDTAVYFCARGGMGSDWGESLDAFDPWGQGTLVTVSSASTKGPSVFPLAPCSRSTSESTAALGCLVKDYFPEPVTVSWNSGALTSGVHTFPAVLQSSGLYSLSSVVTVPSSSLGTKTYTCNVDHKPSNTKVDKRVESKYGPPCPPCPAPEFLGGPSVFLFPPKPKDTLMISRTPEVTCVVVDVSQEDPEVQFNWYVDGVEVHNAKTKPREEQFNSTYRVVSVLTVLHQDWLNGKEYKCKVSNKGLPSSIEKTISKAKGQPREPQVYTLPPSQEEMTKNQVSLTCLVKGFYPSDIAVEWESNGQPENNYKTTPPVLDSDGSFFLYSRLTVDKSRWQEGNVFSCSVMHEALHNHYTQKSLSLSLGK
light: B6 light with Q3V, T10S, L11V, E70D, Y71F, D81E, P103G, E108V
notes: humanized IgG4/kappa, VH2+VL3; transfection supernatant
B10: B21H4-32 (antibody, human IgG4 S228P, kappa)
heavy: not shown
light: B6 light with T10S, A43V, E70D, P80S, D81E, F83A, P103G, E108V
notes: humanized IgG4/kappa, VH3+VL2; transfection supernatant
B11: B21H4-33 (antibody, human IgG4 S228P, kappa)
heavy: not shown
light: B6 light with Q3V, T10S, L11V, E70D, Y71F, D81E, P103G, E108V
notes: humanized IgG4/kappa, VH3+VL3; transfection supernatant
B12: B21H4-21 (antibody, human IgG4 S228P, kappa, V domains shown)
VH: B1 VH with V5L, D10G, A12V, V24A, V78L, T83N, R86T, A87V, L92V
VL: B2 VL
notes: humanized IgG4/kappa, VH2+VL1; transfection supernatant
B13: B21H4-43 (antibody, human IgG4 S228P, kappa)
heavy: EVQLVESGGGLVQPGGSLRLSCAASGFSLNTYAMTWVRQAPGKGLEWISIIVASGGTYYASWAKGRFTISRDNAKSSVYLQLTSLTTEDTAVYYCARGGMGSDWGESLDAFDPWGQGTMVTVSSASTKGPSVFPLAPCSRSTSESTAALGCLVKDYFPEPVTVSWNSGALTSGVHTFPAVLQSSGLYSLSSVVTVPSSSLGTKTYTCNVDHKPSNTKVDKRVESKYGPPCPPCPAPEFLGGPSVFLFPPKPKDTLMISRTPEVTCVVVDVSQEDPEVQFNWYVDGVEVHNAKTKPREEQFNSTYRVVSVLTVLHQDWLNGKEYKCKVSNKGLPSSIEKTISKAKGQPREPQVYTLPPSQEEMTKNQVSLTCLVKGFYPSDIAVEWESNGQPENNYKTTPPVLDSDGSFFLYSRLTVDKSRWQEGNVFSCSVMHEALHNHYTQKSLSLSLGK
light: B6 light with Q3V, T10S, L11V, E70D, Y71F, D81E, P103G, E108V
notes: humanized IgG4/kappa, VH4+VL3; transfection supernatant
B14: B21H4-22 (antibody, human IgG4 S228P, kappa)
heavy: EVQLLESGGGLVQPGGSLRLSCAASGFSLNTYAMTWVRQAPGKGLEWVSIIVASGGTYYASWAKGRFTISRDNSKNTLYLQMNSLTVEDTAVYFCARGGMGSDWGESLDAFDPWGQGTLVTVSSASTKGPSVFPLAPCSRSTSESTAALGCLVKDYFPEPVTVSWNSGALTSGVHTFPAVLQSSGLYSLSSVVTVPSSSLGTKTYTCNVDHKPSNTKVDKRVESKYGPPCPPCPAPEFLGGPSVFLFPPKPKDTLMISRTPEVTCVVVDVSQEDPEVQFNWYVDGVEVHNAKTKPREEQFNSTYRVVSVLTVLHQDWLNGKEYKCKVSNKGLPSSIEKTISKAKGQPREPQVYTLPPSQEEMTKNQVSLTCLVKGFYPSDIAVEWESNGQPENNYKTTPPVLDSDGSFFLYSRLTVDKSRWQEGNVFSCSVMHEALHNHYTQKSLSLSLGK
light: B6 light with T10S, A43V, E70D, P80S, D81E, F83A, P103G, E108V
notes: humanized IgG4/kappa, VH2+VL2; transfection supernatant
B15: B21H4-24 (antibody, human IgG4 S228P, kappa)
heavy: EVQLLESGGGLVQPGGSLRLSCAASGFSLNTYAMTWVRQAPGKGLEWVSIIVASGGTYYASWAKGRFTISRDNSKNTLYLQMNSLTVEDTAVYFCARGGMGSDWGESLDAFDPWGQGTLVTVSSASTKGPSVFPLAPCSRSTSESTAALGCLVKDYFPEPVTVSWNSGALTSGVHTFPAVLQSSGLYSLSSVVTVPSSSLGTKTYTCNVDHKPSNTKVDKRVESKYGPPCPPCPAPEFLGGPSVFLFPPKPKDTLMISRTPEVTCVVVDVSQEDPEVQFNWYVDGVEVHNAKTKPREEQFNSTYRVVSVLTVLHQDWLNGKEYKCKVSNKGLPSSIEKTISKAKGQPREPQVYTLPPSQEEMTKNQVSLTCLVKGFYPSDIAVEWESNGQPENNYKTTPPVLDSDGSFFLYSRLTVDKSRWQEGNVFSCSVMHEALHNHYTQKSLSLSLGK
light: B6 light with I2V, Q3V, L11V, I21L, K42Q, A43P, S60D, E70D, P80A, P103Q
notes: humanized IgG4/kappa, VH2+VL4; transfection supernatant
B16: B21H4-45 (antibody, human IgG4 S228P, kappa)
heavy: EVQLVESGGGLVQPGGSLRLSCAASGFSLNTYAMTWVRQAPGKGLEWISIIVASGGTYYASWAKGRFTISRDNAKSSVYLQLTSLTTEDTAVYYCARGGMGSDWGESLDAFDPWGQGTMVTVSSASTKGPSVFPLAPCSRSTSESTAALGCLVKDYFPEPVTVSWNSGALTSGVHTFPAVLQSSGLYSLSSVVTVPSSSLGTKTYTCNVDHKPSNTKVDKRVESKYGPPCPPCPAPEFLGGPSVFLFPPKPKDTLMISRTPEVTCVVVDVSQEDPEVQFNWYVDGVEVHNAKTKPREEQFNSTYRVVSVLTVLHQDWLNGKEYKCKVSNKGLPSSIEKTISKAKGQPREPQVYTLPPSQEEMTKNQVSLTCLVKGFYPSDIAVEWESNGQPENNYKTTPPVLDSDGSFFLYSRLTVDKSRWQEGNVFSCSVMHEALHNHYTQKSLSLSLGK
light: B3 light
notes: humanized IgG4/kappa, VH4+VL5; transfection supernatant
B17: B21H4-41 (antibody, human IgG4 S228P, kappa, V domains shown)
VH: EVQLVESGGGLVQPGGSLRLSCAASGFSLNTYAMTWVRQAPGKGLEWISIIVASGGTYYASWAKGRFTISRDNAKSSVYLQLTSLTTEDTAVYYCARGGMGSDWGESLDAFDPWGQGTMVTVSS
VL: B2 VL
notes: humanized IgG4/kappa, VH4+VL1; transfection supernatant
B18: B21H4-53 (antibody, human IgG4 S228P, kappa, V domains shown)
VH: QVQLEESGGRLVQPGTSLRLSCAVSGFSLNTYAMTWVRQAPGKGLEWIGIIVASGGTYYASWAKGRFTISRDTSKNTLYLQITSLRAEDTATYFCARGGMGSDWGESLDAFDPWGQGTLVTVSS
VL: B2 VL with Q3V, T10S, L11V, E70D, Y71F, D81E, P103G, E108V
notes: humanized IgG4/kappa, VH5+VL3; transfection supernatant
B19: B21H4-54 (antibody, human IgG4 S228P, kappa, V domains shown)
VH: B18 VH
VL: B2 VL with I2V, Q3V, L11V, I21L, K42Q, A43P, S60D, E70D, P80A, P103Q
notes: humanized IgG4/kappa, VH5+VL4; transfection supernatant
B20: B21H4-51 (antibody, human IgG4 S228P, kappa, V domains shown)
VH: B18 VH
VL: B2 VL
notes: humanized IgG4/kappa, VH5+VL1; transfection supernatant
B21: B21H4-44 (antibody, human IgG4 S228P, kappa, V domains shown)
VH: B17 VH
VL: B2 VL with I2V, Q3V, L11V, I21L, K42Q, A43P, S60D, E70D, P80A, P103Q
notes: humanized IgG4/kappa, VH4+VL4; transfection supernatant

These binders were tested against T1, recombinant human LILRB1-His (human, UniProt Q8NHL6 24-458) (assay: MSD ELISA, coated antigen, transfection supernatant).
T1 construct: Bought protein; also called LILRB1 protein
T1 sequence (Q8NHL6 24-458 limits assumed): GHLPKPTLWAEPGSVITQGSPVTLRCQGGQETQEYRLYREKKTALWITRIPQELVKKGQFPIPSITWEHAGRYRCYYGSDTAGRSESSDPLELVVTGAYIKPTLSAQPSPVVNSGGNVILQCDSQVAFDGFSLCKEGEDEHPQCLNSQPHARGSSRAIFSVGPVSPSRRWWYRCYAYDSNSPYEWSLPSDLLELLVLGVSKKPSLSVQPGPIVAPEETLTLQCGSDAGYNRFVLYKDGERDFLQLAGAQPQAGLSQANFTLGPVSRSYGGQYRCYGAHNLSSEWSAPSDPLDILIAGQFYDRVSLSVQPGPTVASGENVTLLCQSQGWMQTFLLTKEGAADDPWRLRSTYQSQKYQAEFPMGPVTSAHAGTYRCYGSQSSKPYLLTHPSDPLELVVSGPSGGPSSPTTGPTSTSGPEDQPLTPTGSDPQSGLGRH
Method: (§1) To confirm binding to human LILRB1 and human LILRB2, transfection supernatants (obtained in Example 2) were evaluated for binding by ELISA. The conditioned media from these transient transfections were assayed for human IgG concentration by AlphaLISA® immunoassay (PerkinElmer, No. AL310C) (Table 4). A plate-based MSD ELISA was performed in which human LILRB1-His or LILRB2-His was immobilized, and binding of transfection supernatants of humanized mAb variants was detected via an anti-human IgG Sulfo-tag-labeled secondary antibody. The IgG1 version of the parental rabbit/human chimera (designated B21A1) transfection served as the benchmark EC₅₀ positive control.
(§2) Recombinant human and cynomolgus LILRB1 proteins (R&D Systems, No. 8989-T2-050; ACROBiosystems, No. CDJ-C52H3) and recombinant human and cynomolgus LILRB2 proteins (ACROBiosystems, No. LI2-H5220; No. L12-C52H3) were diluted in PBS to 4 μg/mL and added to a multi-array 384-well high-binding plates (MSD, No. L21XA4) at 10 μL/well and incubated at 4° C. overnight. The plates were washed several times with Wash Buffer (0.05% Tween® 20 in PBS), using a microplate washer and then blocked with 70 μL/well of 5% BSA in PBS for 1 hour (h) at room temperature (RT) with shaking at 700 rpm. After blocking, 20 μL/well of anti-LILRB2/LILRB1 antibodies or isotype control were added to the plates, and the plates were sealed and incubated for 2 h at RT with shaking at 700 rpm. After primary antibody binding, plates were washed five times with 70 μL/well of Wash Buffer (0.05% Tween® 20 in PBS) using a microplate washer. Secondary detection antibody (SULFO-TAG™-labeled goat anti-human IgG antibody (MSD, No. R32AJ-1)) was diluted to 4 μg/mL in assay diluent (1% BSA in PBS) and 10 μL/well was added to plates and incubated at RT protected from light for 1 h, with shaking at 700 rpm. Following incubation, plates were washed five times with Wash Buffer, using a microplate washer. After removal of the final wash, 35 μL/well of MSD Gold Read Buffer B (MSD, No. R60AM-4) was added to all wells using a Multidrop combo washer/dispenser, and plates were read using MESO Sector 600MM instrument (MSD) within 5 minutes (min) after addition of Read Buffer. Signals as counts per minute (cpm) were recorded.
In the case of B1, the EC50 is reported as 3.91 ng/mL.
In the case of B2, the EC50 is reported as 3.58 ng/mL.
B3 was tested, and the EC50 was 2.92 ng/mL.
B4 showed an EC50 of 3.95 ng/mL.
B5 was tested, and the EC50 was 3.1 ng/mL.
Work on B6 yielded an EC50 of 2.24 ng/mL.
Binder B7 has an EC50 of 2.41 ng/mL.
Work on B8 yielded an EC50 of 3.12 ng/mL.
B9 gave an EC50 of 2.85 ng/mL.
B10 gave an EC50 of 2.46 ng/mL.
Binder B11 has an EC50 of 2.66 ng/mL.
B12 gave an EC50 of 2.32 ng/mL.
For B13, the EC50 was 3.04 ng/mL.
With B14 the EC50 was 1.85 ng/mL.
Binder B15 has an EC50 of 1.95 ng/mL.
B16 gave an EC50 of 4.7 ng/mL.
In the case of B17, the EC50 is reported as 5.71 ng/mL.
In the case of B18, the EC50 is reported as 4.7 ng/mL.
For B19, the EC50 was 4.85 ng/mL.
B20 was tested, and the EC50 was 3.88 ng/mL.
B21 gave an EC50 of 3.23 ng/mL.

These binders were tested against T2, recombinant human LILRB2-His (human, UniProt Q8N423 22-461, limits assumed) in the same assay as above.
T2 construct: Bought protein; also called LILRB2 protein
T2 sequence (Q8N423 22-461 limits assumed): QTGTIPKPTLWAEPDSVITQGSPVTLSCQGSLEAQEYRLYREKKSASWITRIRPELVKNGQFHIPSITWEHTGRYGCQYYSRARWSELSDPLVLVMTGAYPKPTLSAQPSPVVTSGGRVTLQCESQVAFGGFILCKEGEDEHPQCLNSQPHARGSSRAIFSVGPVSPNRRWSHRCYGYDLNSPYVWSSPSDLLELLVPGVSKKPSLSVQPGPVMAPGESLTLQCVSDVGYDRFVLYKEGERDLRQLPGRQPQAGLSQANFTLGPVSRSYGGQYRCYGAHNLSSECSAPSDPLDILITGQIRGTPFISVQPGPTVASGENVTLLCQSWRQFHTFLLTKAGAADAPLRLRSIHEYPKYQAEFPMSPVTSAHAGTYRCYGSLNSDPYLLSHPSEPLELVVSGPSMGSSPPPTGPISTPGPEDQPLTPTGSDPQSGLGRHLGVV
Method: as §1, §2
For B1, the EC50 was 1.73 ng/mL.
B2 was tested, and the EC50 was 2.02 ng/mL.
B3 showed an EC50 of 1.57 ng/mL.
B4 gave an EC50 of 1.42 ng/mL.
Binder B5 has an EC50 of 1.25 ng/mL.
Work on B6 yielded an EC50 of 1.45 ng/mL.
For B7, the EC50 was 0.74 ng/mL.
For B8, the EC50 was 1.08 ng/mL.
With B9 the EC50 was 1.08 ng/mL.
B10 was tested, and the EC50 was 0.95 ng/mL.
Binder B11 has an EC50 of 0.72 ng/mL.
B12 was tested, and the EC50 was 1.93 ng/mL.
B13 was tested, and the EC50 was 0.63 ng/mL.
Work on B14 yielded an EC50 of 1.06 ng/mL.
Work on B15 yielded an EC50 of 0.84 ng/mL.
For B16, the EC50 was 0.26 ng/mL.
For B17, the EC50 was 1.38 ng/mL.
In the case of B18, the EC50 is reported as 1.67 ng/mL.
B19 showed an EC50 of 2.75 ng/mL.
B20 was tested, and the EC50 was 2.51 ng/mL.
For B21, the EC50 was 1.63 ng/mL.
